Changes are numbered by the printed parent chain.
B1: consensus (structured_RNA)
RNA: GGUCACGUCUCAAUCAACUCCCAAAGGCCUUUCUAAAGGCCACCCAUCAACAGCUCGCAGUCAAG
B2: consensus (structured_RNA)
RNA: B1 RNA with U30C, A35G, A37G
B3: consensus (structured_RNA)
RNA: B1 RNA with C33U, A35G
B4: consensus (structured_RNA)
RNA: B1 RNA with C28U, C29U, U30C, C33U, A35C, A37G, G38A, G39A
B5: consensus (structured_RNA)
RNA: B1 RNA with C28U, U30C, A35U, A37G, G39A
B6: consensus (structured_RNA)
RNA: B1 RNA with C28U, U30C, A37G, G39A
B7: consensus (structured_RNA)
RNA: B1 RNA with C28U, C33U
B8: consensus (structured_RNA)
RNA: B1 RNA with C29U, C33U, A35U, G38A
B9: consensus (structured_RNA)
RNA: B1 RNA with C29U, A35C
B10: consensus (structured_RNA)
RNA: B1 RNA with C28U, G39A
B11: consensus (structured_RNA)
RNA: B1 RNA with C28U
B12: consensus (structured_RNA)
RNA: B1 RNA with C29U, G38A
B13: consensus (structured_RNA)
RNA: B1 RNA with C29U, U30C, C33U, A37G
B14: consensus (structured_RNA)
RNA: B1 RNA with C28U, C29U, C33U, A35C, G38A, G39A
B15: consensus (structured_RNA)
RNA: B1 RNA with C33U, A35C
B16: consensus (structured_RNA)
RNA: B1 RNA with C29U, C33U, A35C
B17: consensus (structured_RNA)
RNA: B1 RNA with U30C, C33U, A35U, A37G
B18: consensus (structured_RNA)
RNA: B1 RNA with C29U, U30C, A37G
B19: consensus (structured_RNA)
RNA: B1 RNA with C28U, C29U, U30C, C33U, A35U, A37G, G38A, G39A
B20: consensus (structured_RNA)
RNA: B1 RNA with C28U, C29U, U30C, C33U, A37G, G38A, G39A
B21: consensus (structured_RNA)
RNA: B1 RNA with C28U, U30C, A35C, A37G
B22: consensus (structured_RNA)
RNA: B1 RNA with C29U, A35U, G38A
B23: consensus (structured_RNA)
RNA: B1 RNA with C29U, U30C, C33U, A35U, A37G, G38A
B24: consensus (structured_RNA)
RNA: B1 RNA with C28U, A35U, G39A
B25: consensus (structured_RNA)
RNA: B1 RNA with C28U, C33U, A35C
B26: consensus (structured_RNA)
RNA: B1 RNA with C29U, U30C, A35C, A37G, G38A
B27: consensus (structured_RNA)
RNA: B1 RNA with C29U, C33U, G38A
B28: consensus (structured_RNA)
RNA: B1 RNA with C28U, C33U, A35U
B29: consensus (structured_RNA)
RNA: B1 RNA with A35G
B30: consensus (structured_RNA)
RNA: B1 RNA with C28U, U30C, C33U, A35G, A37G, G39A
B31: consensus (structured_RNA)
RNA: B1 RNA with C28U, U30C, C33U, A35C, A37G
B32: consensus (structured_RNA)
RNA: B1 RNA with C29U, U30C, C33U, A35C, A37G, G38A
B33: consensus (structured_RNA)
RNA: B1 RNA with C28U, C29U, U30C, C33U, A37G, G39A
B34: consensus (structured_RNA)
RNA: B1 RNA with U30C, C33U, A35G, A37G
B35: consensus (structured_RNA)
RNA: B1 RNA with C29U, A35C, G38A
B36: consensus (structured_RNA)
RNA: B1 RNA with C28U, C29U, G38A, G39A
B37: consensus (structured_RNA)
RNA: B1 RNA with C28U, U30C, C33U, A35U, A37G
B38: consensus (structured_RNA)
RNA: B1 RNA with C28U, C29U, U30C, A37G, G38A, G39A
B39: consensus (structured_RNA)
RNA: B1 RNA with C28U, C29U, U30C, A35C, A37G, G38A, G39A
B40: consensus (structured_RNA)
RNA: B1 RNA with C29U, U30C, A35C, A37G
B41: consensus (structured_RNA)
RNA: B1 RNA with C28U, U30C, A37G
B42: consensus (structured_RNA)
RNA: B1 RNA with C28U, C33U, A35U, G39A
B43: consensus (structured_RNA)
RNA: B1 RNA with C29U, U30C, C33U, A35G, A37G, G38A
B44: consensus (structured_RNA)
RNA: B1 RNA with C29U, U30C, A37G, G38A
B45: consensus (structured_RNA)
RNA: B1 RNA with C29U
B46: consensus (structured_RNA)
RNA: B1 RNA with C28U, C29U, C33U, G38A, G39A
B47: consensus (structured_RNA)
RNA: B1 RNA with C29U, U30C, A35U, A37G, G38A
B48: consensus (structured_RNA)
RNA: B1 RNA with C29U, C33U
B49: consensus (structured_RNA)
RNA: B1 RNA with C28U, A35C
B50: consensus (structured_RNA)
RNA: B1 RNA with C28U, U30C, C33U, A35U, A37G, G39A
B51: consensus (structured_RNA)
RNA: B1 RNA with U30C, A35U, A37G
B52: consensus (structured_RNA)
RNA: B1 RNA with C28U, C29U, U30C, C33U, A37G, G38A
B53: consensus (structured_RNA)
RNA: B1 RNA with C28U, C29U, U30C, C33U, A35C, A37G, G39A
B54: consensus (structured_RNA)
RNA: B1 RNA with C28U, U30C, A35C, A37G, G39A
B55: consensus (structured_RNA)
RNA: B1 RNA with C33U
B56: consensus (structured_RNA)
RNA: B1 RNA with U30C, A35C, A37G
B57: consensus (structured_RNA)
RNA: B1 RNA with C28U, U30C, C33U, A37G
B58: consensus (structured_RNA)
RNA: B1 RNA with C28U, C29U, U30C, C33U, A35C, A37G, G38A

Target: GST-SBP-SLBP (stem-loop binding protein) (Homo sapiens, UniProt Q14493 1-270)
Assay: targeted RNA Bind-n-Seq; RBNS binding buffer: 25 mM Tris pH 7.5, 150 mM KCl, 3 mM MgCl2, 0.1% Tween, 0.5 mg/mL BSA, 1 mM DTT; 27 nM protein, 750 pM RNA pool; temperature not stated; high values mean tight binding
Settings: protein: recombinant; tags: N-terminal GST and SBP (pGEX6P1-SBP)
How it was run: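 The GST-SBP-tagged protein was expressed in Rosetta(DE3) pLysS E. coli, glutathione-purified and incubated at 27 nM with 750 pM of a designed, T7-transcribed RNA oligo pool in RBNS binding buffer. Bound RNA was reverse transcribed with a 10-nucleotide barcoded primer, PCR-amplified and sequenced on a MiSeq with 200-cycle paired-end reads. Reads were joined with FLASH, aligned with HISAT2 and collapsed by barcode. The binding signal is the DEseq log2 fold change of read counts per sequence.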

Binder | binding signal [log2 fold change]
B1 | 3.74 ± 0.124
B2 | 3.16 ± 0.18
B3 | 3.34 ± 0.155
B4 | 3.44 ± 0.114
B5 | 3.13 ± 0.132
B6 | 3.48 ± 0.135
B7 | 3.18 ± 0.125
B8 | 2.93 ± 0.199
B9 | 2.96 ± 0.136
B10 | 3.73 ± 0.129
B11 | 3.19 ± 0.133
B12 | 3.29 ± 0.116
B13 | 3.07 ± 0.12
B14 | 3.04 ± 0.195
B15 | 3.7 ± 0.124
B16 | 3.17 ± 0.125
B17 | 3.48 ± 0.162
B18 | 3.19 ± 0.123
B19 | 2.84 ± 0.113
B20 | 3.2 ± 0.125

Binder | binding signal [log2 fold change]
B21 | 3.16 ± 0.131
B22 | 3 ± 0.122
B23 | 3.17 ± 0.142
B24 | 3.14 ± 0.132
B25 | 3.26 ± 0.121
B26 | 3.23 ± 0.14
B27 | 3.48 ± 0.133
B28 | 2.89 ± 0.126
B29 | 3.32 ± 0.133
B30 | 3.06 ± 0.144
B31 | 3.33 ± 0.12
B32 | 3.73 ± 0.129
B33 | 2.99 ± 0.127
B34 | 3.37 ± 0.174
B35 | 3.24 ± 0.124
B36 | 3.04 ± 0.144
B37 | 2.9 ± 0.135
B38 | 3.04 ± 0.122
B39 | 3.02 ± 0.121
B40 | 3.04 ± 0.124

Binder | binding signal [log2 fold change]
B41 | 3.27 ± 0.13
B42 | 3.2 ± 0.118
B43 | 2.84 ± 0.154
B44 | 3.2 ± 0.135
B45 | 2.99 ± 0.126
B46 | 2.88 ± 0.264
B47 | 3.11 ± 0.136
B48 | 3.16 ± 0.137
B49 | 2.87 ± 0.126
B50 | 3.37 ± 0.117
B51 | 3.46 ± 0.16
B52 | 2.97 ± 0.121
B53 | 3 ± 0.116
B54 | 3.44 ± 0.13
B55 | 3.68 ± 0.122
B56 | 3.69 ± 0.158
B57 | 3.26 ± 0.128
B58 | 2.98 ± 0.121

— publication PMC5892938, “SARNAclust: Semi-automatic detection of RNA protein binding motifs from immunoprecipitation data”
